Results as given in PMC8514580, “Insight into the interaction between the RNA helicase CGH-1 and EDC-3 and its implications” (Scientific Reports, 2021).
Where a chain is given by its changes, count along the chain named.

Legend:
Assay in all cases: ITC; ligand (peptide or CAR-1 fragment, 0.5 mM) injected into CGH-1_(248-420) or mutant (0.05 mM) in the cell; 20 °C; Buffer B (20 mM Tris-HCl pH 7.5, 150 mM NaCl); one-binding-site model
Settings in all cases: both partners purified
[1] = target: T1, CGH-1_(248–420) Y386A (C. elegans, UniProt Q95YF3 248-420, Y386A)
T1 construct: Mutant of m1 made with the MutanBEST kit; source: E. coli Gold (DE3), purified (Ni-chelating resin, SEC Superdex 75)
T1 sequence (looked up): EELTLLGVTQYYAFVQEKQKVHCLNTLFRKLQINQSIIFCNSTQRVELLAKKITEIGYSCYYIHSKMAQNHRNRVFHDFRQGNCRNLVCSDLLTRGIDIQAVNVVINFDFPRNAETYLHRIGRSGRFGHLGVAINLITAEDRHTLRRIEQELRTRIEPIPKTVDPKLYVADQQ

[2] = target: T2, CGH-1_(248–420) Q266A (C. elegans, UniProt Q95YF3 248-420, Q266A)
T2 construct: Mutant of m1 made with the MutanBEST kit; source: E. coli Gold (DE3), purified (Ni-chelating resin, SEC Superdex 75)
T2 sequence (looked up): T1 sequence (looked up) with Q19A, A139Y

[3] = target: T3, CGH-1_(248–420) H269A (C. elegans, UniProt Q95YF3 248-420, H269A)
T3 construct: Mutant of m1 made with the MutanBEST kit; source: E. coli Gold (DE3), purified (Ni-chelating resin, SEC Superdex 75)
T3 sequence (looked up): T1 sequence (looked up) with H22A, A139Y

[4] = target: T4, CGH-1_(248–420) K277A (C. elegans, UniProt Q95YF3 248-420, K277A)
T4 construct: Mutant of m1 made with the MutanBEST kit; source: E. coli Gold (DE3), purified (Ni-chelating resin, SEC Superdex 75)
T4 sequence (looked up): T1 sequence (looked up) with K30A, A139Y

[5] = target: T5, CGH-1_(248–420) K277E (C. elegans, UniProt Q95YF3 248-420, K277E)
T5 construct: Mutant of m1 made with the MutanBEST kit; source: E. coli Gold (DE3), purified (Ni-chelating resin, SEC Superdex 75)
T5 sequence (looked up): T1 sequence (looked up) with K30E, A139Y

[6] = target: T6, CGH-1_(248–420) R393A (C. elegans, UniProt Q95YF3 248-420, R393A)
T6 construct: Mutant of m1 made with the MutanBEST kit; source: E. coli Gold (DE3), purified (Ni-chelating resin, SEC Superdex 75)
T6 sequence (looked up): T1 sequence (looked up) with A139Y, R146A

[7] = target: T7, CGH-1_(248–420) E396A (C. elegans, UniProt Q95YF3 248-420, E396A)
T7 construct: Mutant of m1 made with the MutanBEST kit; source: E. coli Gold (DE3), purified (Ni-chelating resin, SEC Superdex 75)
T7 sequence (looked up): T1 sequence (looked up) with A139Y, E149A

B1: PATR-1 peptide (CePATR-1_(30–67)) (peptide)
peptide: SDEDHNIFDDEFDAANDETFGGGLDNIGENAELENYAT
notes: PATR-1 (Pat1 ortholog), C. elegans, residues 30-67; Printed with free NH2 and COOH ends; also called PATR1_30-67^WT; CePATR-1 peptide; source: synthetic peptide (GL Biochem, Shanghai)
[1]
  Kd: 4.19 ± 0.58 µM
  dH: -14.2 ± 0.56 kcal/mol
  stoichiometry N: 0.85
[2]
  Kd: 2.97 ± 0.29 µM
  dH: -16.6 ± 0.41 kcal/mol
  stoichiometry N: 0.86
[3]
  Kd: 2.67 ± 0.44 µM
  dH: -15.4 ± 0.67 kcal/mol
  stoichiometry N: 0.94
[4]
  Kd: 4.43 ± 0.42 µM
  dH: -17.2 ± 0.57 kcal/mol
  stoichiometry N: 1.07
[5]
  Kd: 8.29 ± 0.99 µM
  dH: -19.6 ± 0.95 kcal/mol
  stoichiometry N: 1.07
[6]
  Kd: 4.22 ± 0.62 µM
  dH: -16.6 ± 0.69 kcal/mol
  stoichiometry N: 0.8
[7]
  Kd: 2.96 ± 0.34 µM
  dH: -16.3 ± 0.47 kcal/mol
  stoichiometry N: 0.93
